Experimental data: PMC4036362, “Normal Activation of Discoidin Domain Receptor 1 Mutants with Disulfide Cross-links, Insertions, or Deletions in the Extracellular Juxtamembrane Region” (The Journal of Biological Chemistry, 2014)

B1: DDR1 mutant [human] / itself (parent)
chain: DADMKGHFDPAKCRYALGMQDRTIPDSDISASSSWSDSTAARHSRLESSDGDGAWCPAGSVFPKEEEYLQVDLQRLHLVALVGTQGRHAGGLGKEFSRSYRLRYSRDGRRWMGWKDRWGQEVISGNEDPEGVVLKDLGPPMVARLVRFYPRADRVMSVCLRVELYGCLWRDGLLSYTAPVGQTMYLSEAVYLNDSTYDGHTVGGLQYGGLGQLADGVVGLDDFRKSQELRVWPGYDYVGWSNHSFSSGYVEMEFEFDRLRAFQAMQVHSNNMHTLGARLPGGVECRFRRGPAMAWEGEPMRHNLGGNLGDPRARAVSVPLGGRVARFLQCRFLFAGPWLLFSEISFISDVVNNSSPALGGTFPPAPWWPPGPPPTNFSSLELEPRGQQPVAKAEGSPTAILIGCLVAIILLLLLIIALMLWRLHWRRLLSKAERRVLEEELTVHLSVPGDTILINNRPGPREPPPYQEPRPRGNPPHSAPCVPNGSALLLSNPAYRLLLATYARPPRGPGPPTPAWAKPTNTQAYSGDYMEPEKPGAPLLPPPPQNSVPHYAEADIVTLQGVTGGNTYAVPALPPGAVGDGPPRVDFPRSRLRFKEKLGEGQFGEVHLCEVDSPQDLVSLDFPLNVRKGHPLLVAVKILRPDATKNARNDFLKEVKIMSRLKDPNIIRLLGVCVQDDPLCMITDYMENGDLNQFLSAHQLEDKAAEGAPGDGQAAQGPTISYPMLLHVAAQIASGMRYLATLNFVHRDLATRNCLVGENFTIKIADFGMSRNLYAGDYYRVQGRAVLPIRWMAWECILMGKFTTASDVWAFGVTLWEVLMLCRAQPFGQLTDEQVIENAGEFFRDQGRQVYLSRPPACPQGLYELMLRCWSRESEQRPPFSQLHRFLAEDALNTV

Variants of: B1
Test: disulfide cross-linking, nonreducing SDS-PAGE and Western blotting with anti-DDR1 antibodies
Details: transiently transfected HEK293 cells, lysed in 30 mM NEM, read off a plot
[1] = 10 μg/ml collagen I for 90 min at 37 °C

Variant	screen value [1] [%]	screen value (unstimulated) [%]	screen value (10 μg/ml collagen I for 90 min at 37 °C, dimeric plus higher oligomeric forms) [%]	screen value (unstimulated, dimeric plus higher oligomeric forms) [%]
chain 1 T398C	93	94	–	–
chain 1 G403C C404A	35	37	–	–
chain 1 I402C	62	65	–	–
chain 1 G403C	30	32	–	–
chain 1 G395C	–	73	–	–
chain 1 A393C	81	84	–	–
chain 1 V390C C404A	85	–	–	–
chain 1 L405C	3.5	5	–	–
chain 1 E394C	72	75	–	–
chain 1 C404A	–	4.5	–	–
chain 1 S396C	82	84	–	–
chain 1 A399C	59	61	59	61
chain 1 A391C	80	81	–	–
chain 1 K392C	76	81	–	–
chain 1 L401C	61	60	–	–
chain 1 V390C	82	83	–	–
chain 1 P397C	81	82	–	–
chain 1 L405C C404A	4.5	3.5	–	–
chain 1 E394C C404A	81	83	–	–
chain 1 I400C	56	60	–	–
